Data as given in paper PMC6623464, “HTLV-1 basic leucine zipper factor protects cells from oxidative stress by upregulating expression of Heme Oxygenase I”.

What was measured:
MafG-His;T7-HBZ-bZIP [1] = target: T1, MafG-His;T7-HBZ-bZIP (human?;HTLV-1, UniProt O15525;P0C746-2 1-162;120-206, |); test: EMSA; most pronounced increase over MafG alone; EMSA: 0.5x TM (100 mM Tris-HCl pH 7.5, 20 mM MgSO4 as printed), 1 mM DTT, 1 ug BSA, 100 ng poly(dA)-poly(dT), 2-10 fmol probe, 20 C, 1 h; proteins stored in 50; details: protein: recombinant;recombinant; tags: 6xHis (pRSET A);T7; copies: 1;1; label: 32P end label
MafG-His;T7-HBZ-bZIP [2] = target: T1, MafG-His;T7-HBZ-bZIP; test: EMSA; increased over MafG alone; EMSA: 0.5x TM (100 mM Tris-HCl pH 7.5, 20 mM MgSO4 as printed), 1 mM DTT, 1 ug BSA, 100 ng poly(dA)-poly(dT), 2-10 fmol probe, 20 C, 1 h; proteins stored in 50; details: protein: recombinant;recombinant; tags: 6xHis (pRSET A);T7; copies: 1;1; label: 32P end label
MafG-His [3] = target: T2, MafG-His (UniProt O15525 1-162); test: EMSA; MafG 0.5 nM; higher apparent affinity than distal MAREs; EMSA: 0.5x TM (100 mM Tris-HCl pH 7.5, 20 mM MgSO4 as printed), 1 mM DTT, 1 ug BSA, 100 ng poly(dA)-poly(dT), 2-10 fmol probe, 20 C, 1 h; proteins stored in 50; details: protein: recombinant; tags: 6xHis (pRSET A); chain copies: 2; label: 32P end label
MafG-His;T7-HBZ-bZIP [4] = target: T1, MafG-His;T7-HBZ-bZIP; test: EMSA; HBZ-bZIP diminished the MafG complex; authors conclude heterodimer does not bind; EMSA: 0.5x TM (100 mM Tris-HCl pH 7.5, 20 mM MgSO4 as printed), 1 mM DTT, 1 ug BSA, 100 ng poly(dA)-poly(dT), 2-10 fmol probe, 20 C, 1 h; proteins stored in 50; details: protein: recombinant;recombinant; tags: 6xHis (pRSET A);T7; copies: 1;1; label: 32P end label
MafG-His [5] = target: T2, MafG-His; test: EMSA; MafG 0.5 or 1 nM; EMSA: 0.5x TM (100 mM Tris-HCl pH 7.5, 20 mM MgSO4 as printed), 1 mM DTT, 1 ug BSA, 100 ng poly(dA)-poly(dT), 2-10 fmol probe, 20 C, 1 h; proteins stored in 50; details: protein: recombinant; tags: 6xHis (pRSET A); chain copies: 2; label: 32P end label
GST-HBZ = GST-HBZ (HTLV-1, UniProt P0C746-2 1-206); test: EMSA; HBZ 50 nM, no MafG; EMSA: 0.5x TM (100 mM Tris-HCl pH 7.5, 20 mM MgSO4 as printed), 1 mM DTT, 1 ug BSA, 100 ng poly(dA)-poly(dT), 2-10 fmol probe, 20 C, 1 h; proteins stored in 50; details: protein: recombinant; tags: GST; chain copies: 2; label: 32P end label
Sequence of GST-HBZ (P0C746 8-209, tags left off): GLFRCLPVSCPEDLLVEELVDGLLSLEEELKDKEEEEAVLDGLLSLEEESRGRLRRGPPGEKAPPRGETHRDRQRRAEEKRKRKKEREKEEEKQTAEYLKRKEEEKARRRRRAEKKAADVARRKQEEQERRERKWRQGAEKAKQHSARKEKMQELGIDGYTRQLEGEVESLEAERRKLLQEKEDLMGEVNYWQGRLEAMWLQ

GST-HBZ-AD = GST-HBZ-AD (HTLV-1, UniProt P0C746-2 1-57); test: EMSA; HBZ-AD 50 nM, no MafG; EMSA: 0.5x TM (100 mM Tris-HCl pH 7.5, 20 mM MgSO4 as printed), 1 mM DTT, 1 ug BSA, 100 ng poly(dA)-poly(dT), 2-10 fmol probe, 20 C, 1 h; proteins stored in 50; details: protein: recombinant; tags: GST; label: 32P end label
Sequence of GST-HBZ-AD (P0C746 8-60, tags left off): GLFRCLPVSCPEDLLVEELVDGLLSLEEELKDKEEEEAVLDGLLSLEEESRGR

MafG-His;T7-HBZ-bZIP [6] = target: T1, MafG-His;T7-HBZ-bZIP; test: EMSA; increased over MafG alone; MafG 0.5 nM; EMSA: 0.5x TM (100 mM Tris-HCl pH 7.5, 20 mM MgSO4 as printed), 1 mM DTT, 1 ug BSA, 100 ng poly(dA)-poly(dT), 2-10 fmol probe, 20 C, 1 h; proteins stored in 50; details: protein: recombinant;recombinant; tags: 6xHis (pRSET A);T7; copies: 1;1; label: 32P end label
MafG-His [7] = target: T2, MafG-His; test: EMSA; EMSA: 0.5x TM (100 mM Tris-HCl pH 7.5, 20 mM MgSO4 as printed), 1 mM DTT, 1 ug BSA, 100 ng poly(dA)-poly(dT), 2-10 fmol probe, 20 C, 1 h; proteins stored in 50; details: protein: recombinant; tags: 6xHis (pRSET A); chain copies: 2; label: 32P end label

B1: HMOX1 Distal 3 MARE probe (dsDNA)
DNA 1: TGTCTGTTTTCGCTGAGTCACGGTCTAGAGAT
DNA 2: ATCTCTAGACCGTGACTCAGCGAAAACAGACA
**Q.** Does B1 bind (MafG-His;T7-HBZ-bZIP [1])?
**A.** Result: binds

B2: HMOX1 Distal 2 MARE probe (dsDNA)
DNA 1: GATCTGTTTTCGCTGAGTCACGGTCCCGGTGT
DNA 2: ACACCGGGACCGTGACTCAGCGAAAACAGATC
**Q.** Does B2 bind (MafG-His;T7-HBZ-bZIP [2])?
**A.** Result: binds

B3: HMOX1 proximal MARE probe (dsDNA)
DNA 1: TGCTAGATTTTGCTGAGTCACCAGTGCCTCCT
DNA 2: AGGAGGCACTGGTGACTCAGCAAAATCTAGCA
**Q.** Does B3 bind (MafG-His [3])?
**A.** Result: binds

**Q.** Does B3 bind (MafG-His;T7-HBZ-bZIP [4])?
**A.** Result: no binding

B4: T-MARE probe (dsDNA)
DNA 1: AGCTCGGAATTGCTGACTCAGCATTACTCTCG
DNA 2: CGAGAGTAATGCTGAGTCAGCAATTCCGAGCT
**Q.** Does B4 bind (MafG-His [5])?
**A.** Result: binds

**Q.** Does B4 bind (GST-HBZ)?
**A.** Result: no binding

**Q.** Does B4 bind (GST-HBZ-AD)?
**A.** Result: no binding

**Q.** Does B4 bind (MafG-His;T7-HBZ-bZIP [6])?
**A.** Result: binds

B5: HMOX1 Distal 1 MARE probe (dsDNA)
DNA 1: GTGTTTTTCCTGCTGAGTCACGGTCCCGAGGT
DNA 2: ACCTCGGGACCGTGACTCAGCAGGAAAAACAC
**Q.** Does B5 bind (MafG-His;T7-HBZ-bZIP [2])?
**A.** Result: binds

B6: MARE MT probe (dsDNA)
DNA 1: AGCTCGGAATCAATGACTCATTGTTACTCTCG
DNA 2: CGAGAGTAACAATGAGTCATTGATTCCGAGCT
**Q.** Does B6 bind (MafG-His [7])?
**A.** Result: no binding
